The text below walks through data of publication PMC4596477, “Interaction of Myosin Phosphatase Target Subunit (MYPT1) with Myosin Phosphatase-RhoA Interacting Protein (MRIP): A Role of Glutamic Acids in the Interaction” (PLoS ONE, 2015).

A word on the Kd: it is the constant that tells how readily two partners part at equilibrium. Read a low Kd as a tighter complex.

The subject of one series is MRIP. Details: method as in PMID 16243315. To be noted: double point mutations in CC5; ref [12]; cited from earlier work.
Series [1] has as its target T1, MRIP^724-878 (myosin phosphatase-RhoA interacting protein, residues 724–878; CC2-CC4) (UniProt Q6WCQ1 724-878).
T1 construct: Tight homodimer in solution by AUC; the forward primer puts an NdeI ATG before the codons GAGCGAGGGTTTGCAGCAATG; source: E. coli BL21 (DE3), purified (chitin beads, C8 reversed-phase HPLC)
T1 sequence (looked up): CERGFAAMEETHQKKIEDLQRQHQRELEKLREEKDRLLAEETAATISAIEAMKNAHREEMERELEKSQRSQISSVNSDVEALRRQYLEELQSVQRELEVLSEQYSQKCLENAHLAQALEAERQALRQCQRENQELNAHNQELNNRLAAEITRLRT
Put plainly: SPR; Biacore 3000, 25°C; MRIP^724-878 immobilised (1800 RU) by amine coupling on CM5, analytes CCLR (167–1 μM), CC (318–10 μM), LR (569–5 μM); reference surface G-actin; 50 mM potassium phosphate pH 7.4, 100 mM KCl; steady-state affinity fit. To be noted: both partners purified. A general note: In SPR one partner is held on a chip, and binding of the other changes the refractive index at the surface.

The target in series [2] is T1, MRIP^724-878 (myosin phosphatase-RhoA …). Put plainly: SPR; Biacore 3000, 25°C; LR immobilised (244.8 RU) by amine coupling on CM5, analyte MRIP^724-878 (85.6–0.7 μM); reference surface a nebulin-derived peptide; 50 mM potassium phosphate pH 7.4, 100 mM KCl; steady-state affinity fit. To be noted: both partners purified.
The target of a further series is T2, MRIP^724-878 (Homo sapiens, UniProt Q6WCQ1).
T2 construct: MRIP^724-878 (residues 724–878; CC2-CC4); made in house; host or cells: Escherichia coli BL21 (DE3)
T2 sequence (Q6WCQ1 725-879): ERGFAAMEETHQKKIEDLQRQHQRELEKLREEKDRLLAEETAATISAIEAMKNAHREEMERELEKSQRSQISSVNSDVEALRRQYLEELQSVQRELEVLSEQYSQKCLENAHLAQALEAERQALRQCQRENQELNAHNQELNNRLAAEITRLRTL
Put plainly: SPR, MYPT1 peptides as analytes over immobilized MRIP^724-878. Format: binding. As to conditions: 25°C, pH 7.4, CCLR 167–1 μM, CC 318–10 μM, LR 569–5 μM. As for the experimental part:
To corroborate the results from AUC studies, SPR was employed. […] Equilibrium K d values were obtained by nonlinear curve fitting of reference-corrected curves using the steady-state affinity fitting model in BIAevaluation version 4–1.
Analytes CCLR, CC, LR: Interactions between analytes, CCLR (167–1 μM), CC (318–10 μM), and LR (569–5 μM) with immobilized ligand, MRIP^724-878 (1800 RU) after correction for nonspecific binding using G-actin (2230 RU). Shown is a representative out of 9 experiments for CCLR and 8 for LR in each, duplicates or triplicates. Insets show fittings of steady-state affinity. Ligand LR: Interaction of analyte, MRIP^724-878 (85.6–0.7 μM) with immobilized ligand, LR (244.8 RU) after correction for nonspecific binding using a nebulin-derived peptide (600 RU). Shown is a representative out of 6 experiments.
Binding analyses of SPR were conducted on a Biacore 3000 (GE Healthcare) at 25°C. Sensor chips and reagents for immobilization (1-ethyl-3-(3-dimethylaminopropyl) carbodiimide, N-hydroxyl-succinimide, and ethanolamine) were purchased from GE Healthcare. Peptides were immobilized onto a CM5 sensor chip at 232–5841 resonance units (RU) using amine coupling. Binding studies were done using two-fold serial dilutions of the peptides in 50 mM potassium phosphate buffer (pH 7.4) containing 100 mM KCl. […]

For series [3] the following is noted: ref [14]; cited from earlier work. As for the experimental part:
The concentration ranges of the MRIP peptides in the mixtures overlap with those of the MRIP peptides by themselves (Fig 2). Thus, the greater s* values of the MRIP/MYPT1 mixtures than those of the individual MRIP peptides indicate that MRIP^545-878 monomer, MRIP^724-878 dimer, and the mixture of monomer and dimer of MRIP^724-837 bind to CCLR. […] To obtain the binding stoichiometry, AUC was performed using MRIP^724-878/CCLR mixtures at different ratios of the two peptides. MRIP^724-878 was chosen because the AUC stu ... || To obtain the binding stoichiometry, a series of sedimentation equilibrium experiments was performed. MRIP^724-878 was chosen due to its being a single species. Owing to the absence of aromatic residues, LR was employed. AUC was conducted using MRIP^724-878 alone, LR alone, the 1:1 mixture of MRIP^724-878/LR, and the 1:3 mixture of MRIP^724-878/LR. Sedimentation data were collected both at 280 nm to detect only MRIP^724-878 and at 220 nm to detect both.

Numbering of substitutions follows the chain as printed. Numbers in names are those of the source.

B1: L905P/I912P: MRIP mutation employed by Mulder et al; double point mutation in CC5 (protein, UniProt Q6WCQ1 2-1025, looked up, variant L905P I912P)
Myosin phosphatase …: SAAKENPCRKFQANIFNKSKCQNCFKPRESHLLNDEDLTQAKPIYGGWLLLAPDGTDFDNPVHRSRKWQRRFFILYEHGLLRYALDEMPTTLPQGTINMNQCTDVVDGEGRTGQKFSLCILTPEKEHFIRAETKEIVSGWLEMLMVYPRTNKQNQKKKRKVEPPTPQEPGPAKVAVTSSSSSSSSSSSIPSAEKVPTTKSTLWQEEMRTKDQPDGSSLSPAQSPSQSQPPAASSLREPGLESKEEESAMSSDRMDCGRKVRVESGYFSLEKTKQDLKAEEQQLPPPLSPPSPSTPNHRRSQVIEKFEALDIEKAEHMETNAVGPSPSSDTRQGRSEKRAFPRKRDFTNEAPPAPLPDASASPLSPHRRAKSLDRRSTEPSVTPDLLNFKKGWLTKQYEDGQWKKHWFVLADQSLRYYRDSVAEEAADLDGEIDLSACYDVTEYPVQRNYGFQIHTKEGEFTLSAMTSGIRRNWIQTIMKHVHPTTAPDVTSSLPEEKNKSSCSFETCPRPTEKQEAELGEPDPEQKRSRARERRREGRSKTFDWAEFRPIQQALAQERVGGVGPADTHEPLRPEAEPGELERERARRREERRKRFGMLDATDGPGTEDAALRMEVDRSPGLPMSDLKTHNVHVEIEQRWHQVETTPLREEKQVPIAPVHLSSEDGGDRLSTHELTSLLEKELEQSQKEASDLLEQNRLLQDQLRVALGREQSAREGYVLQATCERGFAAMEETHQKKIEDLQRQHQRELEKLREEKDRLLAEETAATISAIEAMKNAHREEMERELEKSQRSQISSVNSDVEALRRQYLEELQSVQRELEVLSEQYSQKCLENAHLAQALEAERQALRQCQRENQELNAHNQELNNRLAAEITRLRTLLTGDGGGEATGSPLAQGKDAYELEVLPRVKESEPQYLKQEISSLKDELQTALRDKKYASDKYKDIYTELSIAKAKADCDISRLKEQLKAATEALGEKSPDSATVSGYDIMKSKSNPDFLKKDRSCVTRQLRNIRSKSVIEQVSWDT
For B1, the oligomerization result in the series with MRIP was “little oligomerization”.

B2: I919P/L926P: MRIP mutation employed by Mulder et al; double point mutation in CC5 (protein, UniProt Q6WCQ1 2-1025, looked up, variant I919P L926P)
Myosin phosphatase …: B1 Myosin phosphatase … with P905L, P912I, I919P, L926P
As for B2, in the series with MRIP, the oligomerization result is on record as “little oligomerization”.

B3: LR, leucine repeat region of MYPT1 (residues 991–1030) (peptide, UniProt O14974 991-1030, looked up)
chain: ERRISEMEEELKMLPDLKADNQRLKDENGALIRVISKLSK
notes: no result of its own is told for it; also called WT-LR; source: E. coli BL21 (DE3), purified (chitin beads, C8 reversed-phase HPLC)
On to B3, for which the Kd in series [1] was found to be 195 µM; in series [2] it was 40 µM.

B4: CCLR, MYPT1 peptide (residues 924–1030) containing a putative coiled coil domain (CC) and the leucine repeat region (LR) (domain or fragment, UniProt O14974 924-1030, looked up)
chain: LEKDDSTDFKKLYEQILAENEKLKAQLHDTNMELTDLKLQLEKATQRQERFADRSLLEMEKRERRALERRISEMEEELKMLPDLKADNQRLKDENGALIRVISKLSK
notes: myosin phosphatase target subunit (MYPT1); also called C-terminal region of MYPT1; source: E. coli BL21 (DE3), purified (chitin beads, C8 reversed-phase HPLC)
Turning to B4, binding in series [1] was put at a Kd of 14 µM. The “complex formation with immobilized MRIP^724-878” value in the series with MRIP^724-878 was “formed complexes”. Further, in series [3], the self-association entry is reported as “reversible self-association”.
